Reference: the supplement of paper PMC9112550, “Optimization of the antimicrobial peptide Bac7 by deep mutational scanning” (BMC Biology, 2022)

Test system: Escherichia coli TOP10
Experiment: shrunken log2 fold change of peptide-encoding DNA abundance (4.5 h post-induction vs induction); higher = less antimicrobial activity (less host growth inhibition)
Details: time post-induction: 4.5 h; library: site-saturation at positions 5, 18, 19, 20
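Note: peptides expressed intracellularly from a pBAD plasmid library in pooled LB shake-flask culture, induced with 0.3% L-arabinose, DNA abundance read by NGS, three biological replicates, DESeq2 with apeglm shrinkage.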

Sequence | shrunken log2 fold change
RRIRCRPPRLPRPRPRPFHRPRP | 0.00717
RRIRPRPPRLPRPRPRPACIPRP | -0.25
RRIRDRPPRLPRPRPRPSCMPRP | 0.0312
RRIRVRPPRLPRPRPRPTEAPRP | 0.0175
RRIRGRPPRLPRPRPRPDTNPRP | 0.199
RRIRPRPPRLPRPRPRPMKWPRP | 0.291
RRIRSRPPRLPRPRPRPMRAPRP | 0.706
RRIRQRPPRLPRPRPRPFMDPRP | 0.0499
RRIRMRPPRLPRPRPRPMCKPRP | 0.00898
RRIRGRPPRLPRPRPRPQFHPRP | -0.239
RRIRYRPPRLPRPRPRPRCHPRP | -0.512
RRIRPRPPRLPRPRPRPRMSPRP | 0.232
RRIRCRPPRLPRPRPRPCCSPRP | -0.321
RRIRRRPPRLPRPRPRPNGWPRP | 0.282
RRIRERPPRLPRPRPRPWHHPRP | -0.326
RRIRFRPPRLPRPRPRPRFHPRP | -0.409
RRIRVRPPRLPRPRPRPFFYPRP | 0.0563
RRIRVRPPRLPRPRPRPYWEPRP | -0.508
RRIRERPPRLPRPRPRPHTEPRP | -0.239
RRIRPRPPRLPRPRPRPMMKPRP | -0.173
RRIRIRPPRLPRPRPRPMYWPRP | -0.291
RRIRCRPPRLPRPRPRPDKEPRP | -0.00172
RRIRCRPPRLPRPRPRPWARPRP | -0.188
RRIRARPPRLPRPRPRPYRGPRP | -0.213
RRIRDRPPRLPRPRPRPPNIPRP | -0.0733

Sequence | shrunken log2 fold change
RRIRYRPPRLPRPRPRPPCFPRP | -0.242
RRIRARPPRLPRPRPRPQLCPRP | 0.249
RRIRHRPPRLPRPRPRPDPPPRP | 0.232
RRIRPRPPRLPRPRPRPWNHPRP | -0.485
RRIRMRPPRLPRPRPRPDYFPRP | -0.121
RRIRLRPPRLPRPRPRPNLYPRP | -0.38
RRIRDRPPRLPRPRPRPGFQPRP | 0.252
RRIRFRPPRLPRPRPRPKVMPRP | -0.178
RRIRQRPPRLPRPRPRPLATPRP | 0.0953
RRIRPRPPRLPRPRPRPYGIPRP | -0.533
RRIRYRPPRLPRPRPRPRERPRP | 0.126
RRIRARPPRLPRPRPRPTSHPRP | -0.016
RRIRQRPPRLPRPRPRPRMCPRP | 0.0318
RRIRSRPPRLPRPRPRPSKPPRP | -0.432
RRIRSRPPRLPRPRPRPFLSPRP | -0.063
RRIRLRPPRLPRPRPRPKSYPRP | -0.592
RRIRKRPPRLPRPRPRPPMNPRP | 0.123
RRIRKRPPRLPRPRPRPLNWPRP | 0.0951
RRIRRRPPRLPRPRPRPMRTPRP | 0.911
RRIRIRPPRLPRPRPRPMLPPRP | -0.0228
RRIRWRPPRLPRPRPRPWFNPRP | -0.248
RRIRIRPPRLPRPRPRPYTLPRP | -0.478
RRIRWRPPRLPRPRPRPFSVPRP | -0.159
RRIRKRPPRLPRPRPRPPVQPRP | 0.83
RRIRARPPRLPRPRPRPINWPRP | 0.139

Sequence | shrunken log2 fold change
RRIRSRPPRLPRPRPRPQRDPRP | -0.117
RRIRMRPPRLPRPRPRPKTAPRP | 2.56
RRIRRRPPRLPRPRPRPYKCPRP | -0.639
RRIRKRPPRLPRPRPRPQRGPRP | -0.0338
RRIRLRPPRLPRPRPRPNYAPRP | -0.0328
RRIRVRPPRLPRPRPRPVYPPRP | -0.389
RRIRDRPPRLPRPRPRPLRVPRP | 0.679
RRIRQRPPRLPRPRPRPYKIPRP | -0.568
RRIRARPPRLPRPRPRPYKYPRP | -0.227
RRIRQRPPRLPRPRPRPSHMPRP | 0.109
RRIRFRPPRLPRPRPRPMCCPRP | -0.429
RRIRERPPRLPRPRPRPCHNPRP | -0.0168
RRIRCRPPRLPRPRPRPNDRPRP | -0.299
RRIRHRPPRLPRPRPRPVCGPRP | 0.137
RRIRNRPPRLPRPRPRPRALPRP | 0.117
RRIRYRPPRLPRPRPRPPCAPRP | 2.51
RRIRFRPPRLPRPRPRPGHHPRP | -0.561
RRIRNRPPRLPRPRPRPINHPRP | -0.705
RRIRLRPPRLPRPRPRPNFVPRP | -0.196
RRIRGRPPRLPRPRPRPKKFPRP | 0.582
RRIRVRPPRLPRPRPRPHPIPRP | -0.0473
RRIRGRPPRLPRPRPRPQKTPRP | -0.0351
RRIRHRPPRLPRPRPRPPKIPRP | 0.282
RRIRERPPRLPRPRPRPSRVPRP | 0.0314
RRIRIRPPRLPRPRPRPRIYPRP | 0.00994

Sequence | shrunken log2 fold change
RRIRNRPPRLPRPRPRPSCDPRP | -0.179
RRIRSRPPRLPRPRPRPWGDPRP | -0.077
RRIRCRPPRLPRPRPRPEESPRP | -0.00538
RRIRYRPPRLPRPRPRPFRAPRP | -0.142
RRIRDRPPRLPRPRPRPHYVPRP | -0.0495
RRIRHRPPRLPRPRPRPLSLPRP | -0.492
RRIRPRPPRLPRPRPRPSGCPRP | 0.142
RRIRTRPPRLPRPRPRPQRDPRP | 0.347
RRIRQRPPRLPRPRPRPDSHPRP | -0.065
RRIRHRPPRLPRPRPRPIFYPRP | -0.204
RRIRRRPPRLPRPRPRPKHIPRP | 0.0894
RRIRDRPPRLPRPRPRPPPHPRP | 0.623
RRIRPRPPRLPRPRPRPSWNPRP | -0.158
RRIRERPPRLPRPRPRPNFQPRP | 0.0442
RRIRGRPPRLPRPRPRPFHWPRP | 0.134
RRIRKRPPRLPRPRPRPYYTPRP | -0.34
RRIRPRPPRLPRPRPRPHTNPRP | 0.401
RRIRKRPPRLPRPRPRPTPYPRP | 0.235
RRIRPRPPRLPRPRPRPDPMPRP | 0.4
RRIRSRPPRLPRPRPRPMAPPRP | 0.257
RRIRSRPPRLPRPRPRPADEPRP | 0.246
RRIRCRPPRLPRPRPRPLWFPRP | -0.315
RRIRVRPPRLPRPRPRPHYWPRP | -0.336
RRIRARPPRLPRPRPRPTRPPRP | 0.764
RRIRLRPPRLPRPRPRPIYNPRP | -0.989

Sequence | shrunken log2 fold change
RRIRWRPPRLPRPRPRPFAWPRP | 0.179
RRIRARPPRLPRPRPRPCGIPRP | 0.23
RRIRNRPPRLPRPRPRPQMNPRP | -0.614
RRIRPRPPRLPRPRPRPWSPPRP | 0.121
RRIRQRPPRLPRPRPRPGNQPRP | 0.0157
RRIRFRPPRLPRPRPRPPIGPRP | -0.229
RRIRERPPRLPRPRPRPVFMPRP | -0.356
RRIRVRPPRLPRPRPRPIRVPRP | -0.473
RRIRCRPPRLPRPRPRPNGAPRP | -0.0129
RRIRCRPPRLPRPRPRPCGFPRP | -0.29
RRIRMRPPRLPRPRPRPCYHPRP | -0.265
RRIRVRPPRLPRPRPRPVVTPRP | 0.0368
RRIRVRPPRLPRPRPRPTPQPRP | 0.279
RRIRYRPPRLPRPRPRPEIWPRP | 0.212
RRIRGRPPRLPRPRPRPVPDPRP | 0.958
RRIRWRPPRLPRPRPRPLNKPRP | -0.397
RRIRWRPPRLPRPRPRPEVFPRP | 1.35
RRIRPRPPRLPRPRPRPILAPRP | 0.273
RRIRQRPPRLPRPRPRPGSHPRP | -0.108
RRIRFRPPRLPRPRPRPPTRPRP | 0.748
RRIRMRPPRLPRPRPRPERFPRP | 0.0214
RRIRVRPPRLPRPRPRPCWSPRP | 0.0821
RRIRLRPPRLPRPRPRPLEPPRP | 0.0493
RRIRCRPPRLPRPRPRPYGSPRP | -0.517
RRIRPRPPRLPRPRPRPWFMPRP | -0.18

Sequence | shrunken log2 fold change
RRIRSRPPRLPRPRPRPGQQPRP | 0.0543
RRIRLRPPRLPRPRPRPRGGPRP | 0.515
RRIRCRPPRLPRPRPRPCFVPRP | -0.235
RRIRGRPPRLPRPRPRPPFIPRP | 0.627
RRIRDRPPRLPRPRPRPRNDPRP | -0.461
RRIRYRPPRLPRPRPRPPHGPRP | -0.0619
RRIRWRPPRLPRPRPRPWCRPRP | -0.000362
RRIRGRPPRLPRPRPRPLENPRP | 0.766
RRIRIRPPRLPRPRPRPVDIPRP | -0.405
RRIRKRPPRLPRPRPRPNCEPRP | 0.082
RRIRPRPPRLPRPRPRPRVYPRP | -0.311
RRIRFRPPRLPRPRPRPEIKPRP | 0.058
RRIRIRPPRLPRPRPRPHVPPRP | -0.00519
RRIRRRPPRLPRPRPRPYFCPRP | -0.285
RRIRSRPPRLPRPRPRPWMMPRP | -0.165
RRIRFRPPRLPRPRPRPTVVPRP | 0.174
RRIRCRPPRLPRPRPRPGPHPRP | 0.0758
RRIRRRPPRLPRPRPRPFYCPRP | -0.162
RRIRHRPPRLPRPRPRPKRTPRP | 0.00166
RRIRKRPPRLPRPRPRPRLPPRP | 0.768
RRIRERPPRLPRPRPRPDHCPRP | -0.0389
RRIRNRPPRLPRPRPRPSYLPRP | -0.959
RRIRPRPPRLPRPRPRPCRRPRP | 0.117
RRIRNRPPRLPRPRPRPCAPPRP | -0.436
RRIRFRPPRLPRPRPRPHNQPRP | -0.75
